Reference: IntAct's records for PubMed 20704562

B1: Transmembrane protease serine 6 (Homo sapiens), Q8IU80 (parent)
chain: MLLLFHSKRMPVAEAPQVAGGQGDGGDGEEAEPEGMFKACEDSKRKARGYLRLVPLFVLLALLVLASAGVLLWYFLGYKAEVMVSQVYSGSLRVLNRHFSQDLTRRESSAFRSETAKAQKMLKELITSTRLGTYYNSSSVYSFGEGPLTCFFWFILQIPEHRRLMLSPEVVQALLVEELLSTVNSSAAVPYRAEYEVDPEGLVILEASVKDIAALNSTLGCYRYSYVGQGQVLRLKGPDHLASSCLWHLQGPKDLMLKLRLEWTLAECRDRLAMYDVAGPLEKRLITSVYGCSRQEPVVEVLASGAIMAVVWKKGLHSYYDPFVLSVQPVVFQACEVNLTLDNRLDSQGVLSTPYFPSYYSPQTHCSWHLTVPSLDYGLALWFDAYALRRQKYDLPCTQGQWTIQNRRLCGLRILQPYAERIPVVATAGITINFTSQISLTGPGVRVHYGLYNQSDPCPGEFLCSVNGLCVPACDGVKDCPNGLDERNCVCRATFQCKEDSTCISLPKVCDGQPDCLNGSDEEQCQEGVPCGTFTFQCEDRSCVKKPNPQCDGRPDCRDGSDEEHCDCGLQGPSSRIVGGAVSSEGEWPWQASLQVRGRHICGGALIADRWVITAAHCFQEDSMASTVLWTVFLGKVWQNSRWPGEVSFKVSRLLLHPYHEEDSHDYDVALLQLDHPVVRSAAVRPVCLPARSHFFEPGLHCWITGWGALREGGPISNALQKVDVQLIPQDLCSEVYRYQVTPRMLCAGYRKGKKDACQGDSGGPLVCKALSGRWFLAGLVSWGLGCGRPNYFGVYTRITGVISWIQQVVT
partner: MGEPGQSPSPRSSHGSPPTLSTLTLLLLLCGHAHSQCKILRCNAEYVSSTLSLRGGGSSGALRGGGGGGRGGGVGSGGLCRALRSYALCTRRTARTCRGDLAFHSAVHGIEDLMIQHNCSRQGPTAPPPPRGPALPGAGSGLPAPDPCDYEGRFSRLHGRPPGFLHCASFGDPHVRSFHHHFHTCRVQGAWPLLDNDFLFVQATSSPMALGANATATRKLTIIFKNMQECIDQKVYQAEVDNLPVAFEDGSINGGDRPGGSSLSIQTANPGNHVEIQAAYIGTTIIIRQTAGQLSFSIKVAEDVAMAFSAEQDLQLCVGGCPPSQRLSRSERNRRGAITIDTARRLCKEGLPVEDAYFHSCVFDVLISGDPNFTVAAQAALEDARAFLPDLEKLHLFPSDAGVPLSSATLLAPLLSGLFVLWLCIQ

Variants of: B1
Details: with rgmc_human HJV

| effect of a mutation on the interaction | Variant |
| --- | --- |
| with no effect | Y141C |
